Some targets named below: SSBΔ120-166 (E. coli); SSBΔ130-166 (E. coli); SSBΔ151-166 (E. coli); SSBΔC8 (E. coli).
Common to all, as to assay: AUC

In the case of SSBΔ120-166 (natural protein), the stoichiometry N (commonly the number of molecules, sites or subunits per partner or assembly) in the test with SSBΔ120-166 (E. coli) was determined as 4. In the test with SSBΔ130-166 (E. coli), SSBΔ130-166 (natural protein) had a stoichiometry N of 4. SSBΔ151-166 (natural protein) came in with a stoichiometry N with SSBΔ151-166 (E. coli) of 4. In the test with SSBΔC8 (E. coli), SSBΔC8 (domain or fragment) gave a stoichiometry N of 4.

The values are drawn from publication PMC4419694.
